Values quoted from earlier work in article PMC10019135.

Molecular target: IL-2Rβ/γc heterodimer (Homo sapiens) (UniProt P14784)
Sequence of UniProt P14784 (P14784 27-240, chain 1 of 2): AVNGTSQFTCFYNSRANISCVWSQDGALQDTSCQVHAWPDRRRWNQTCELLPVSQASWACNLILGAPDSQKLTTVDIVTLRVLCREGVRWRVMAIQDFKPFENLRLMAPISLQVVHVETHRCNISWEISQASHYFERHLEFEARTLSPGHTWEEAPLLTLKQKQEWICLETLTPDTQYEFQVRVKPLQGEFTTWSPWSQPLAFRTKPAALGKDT
Sequence of UniProt P14784 (P31785 23-262, chain 2 of 2, further chain): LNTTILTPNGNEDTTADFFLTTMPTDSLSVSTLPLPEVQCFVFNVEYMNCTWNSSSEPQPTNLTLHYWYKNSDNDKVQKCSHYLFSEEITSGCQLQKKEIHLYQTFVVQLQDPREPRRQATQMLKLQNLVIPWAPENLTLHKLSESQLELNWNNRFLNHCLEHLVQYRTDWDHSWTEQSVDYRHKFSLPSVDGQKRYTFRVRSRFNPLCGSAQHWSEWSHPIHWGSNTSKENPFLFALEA

## IL-2 (from UniProt P60568)
  Kd: 1 nM
